The text below walks through data of the DeepSol protein solubility set.

The nature of this data set: soluble on expression in E. coli; label from the status in PepcDB or PDB records.
Turning to “MAQLYYRYGTMNSGKTIEILKVAYNYEEQGKGVVIMTSALDTRDGVGYVSSRIGMKRPALAIEETTDIFGYIRDLPEKPYCVLVDEAQFLKRHHVYDLARVVDELDIPVMAFGLKNDFRNELFEGSKYLLLLADKIDEIKTICQYCKKKATMVLRTQDGLPVYDGEQIQIGGNETYISVCRKHYFAPMITSNKEQNYDN”, the “soluble on expression in E. coli” value was “not soluble”. The result for “MGHHHHHHSHDDSSEWGNSFFWNQLLHVPLRQHQVSCCDWLLKIICGVVTIRTVYASHKQAKACLVSRVSCERTGTRFHTRGVNDDGHVSNFVETEQMIYMDDGVSSFVQIRGSVPLFWEQPGLQVGSHHLRLHRGLEANAPAFDRHMVLLKEQYGQQVVVNLLGSRGGEEVLNRAFKKLLWASCHAGDTPMINFDFHQFAKGG” reads “not soluble”; that for “MEKIAILVDVQNVYYTCREQYGRHFDYNQFWSQVTQNRTVVKANAYAIASKDPQQRQFHHILRGIGFEVMLKPFIQRSDGSAKGDWDVGIALDGYELAQEVDTVVLVSGDGDFEPLVTRIAQRFQVKVEVYGVPKLTAQHLIDVASQFHPIEHRLLL”, “not soluble”; that for “SENDVIELDDVANLMFYGEGEVGDNHQKFMLIFDTGSANLWVPSKKCNSIGCSTKHLYDSSKSKSYEKDGTKVEITYGSGTVRGFFSKDLVTLGYLSLPYKFIEVTDTDDLEPLYTAAEFDGILGLGWKDLSIGSIDPIVVELKNQNKIDQALFTFYLPVHDKHSGYLTIGGIEEKFYEGELTYEKLNHDLFWQVDLDVNFGKTSMEKANVIVDSGTSTITAPTSFINKFFKDLNVIKVPFLPFYITTCNNKDMPTLEFKSANNTYTLEPEYYMEPLLDIDDTLCMLYILPVDIDKNTFILGDPFMRKYFTVFDYDKESIGFAVAKN”, “soluble”. Turning to “ENQYVMKLANSLFVQNGFHVNEEFLQMLKMYFNAEVNHVDFSQNVAVANSINKWVENYTNSLLKDLVSPEDFDGVTNLALINAVYFKGNWKSQFRPENTRTFSFTKDDESEVQIPMMYQQGEFYYGEFSDGSNEAGGIYQVLEIPYEGDEISMMLALSRQEVPLATLEPLLKAQLIEEWANSVKKQKVEVYLPRFTVEQEIDLKDILKALGVTEIFIKDANLTAMSDKKELFLSKAVHKSCIEVNEEGSEAAAASGMIAIS”, the “soluble on expression in E. coli” value is reported as “soluble”.

For the sequence “MGSDKIHHHHHHMDAPSRSHLASPILVANYRSLPSFMYRDSLPEAAVSPQLLALNTRLLETLEQDLAWFNSSDALEQLSGKTYYGSNLPFALAYSGHQFGGWSPVLGDGRAHVLGQLKTAADELIDVQLKGSGATPFSRGGDGRATLGAVIREYLLSEAMAGLNISTTGSLAVIATGEDVWRNGAYPGAILVRTAKSHLRVGSFQYAAVHQGPEAVKTLADFALAQYYPELSHDENPYQALLAQVIKGQAELVAQWMLVGFIHGVMNTDNSSITGETIDYGPCAFMDEFNPNKVFSSIDSQGRYAWGNQGAIAQWNMARLGETLLPLLDSDEAKALEIAQAQLGDFNRLFAEHFYQGMARKLSLDASDPELIPFVDSTLQLMTNTRVDFCQFFNALTEYHSTHREQDAGLVALFSTEAFPSLSSTPAQLLQDWLSQWQAKACDSQAALAAMIKANPKFIARNHKVEAAISAAEQNNDYSLFLDMARVLANPYVLAEQDKHYQDAPTPDQRVKQTFCGT”, the “soluble on expression in E. coli” value is listed as “not soluble”. Regarding “MKNNAIGSNWKDVRAELFSKEEILESDMRVAIMSELIEARNEKGISQKKLEEMSGVSQPVIARMETGKTSPQLDTVLKVLASLGKTLAVVPLEHEQV”, the “soluble on expression in E. coli” value is “not soluble”.

For “MQILKAIGLLMEYPDDELWECRDEALTLIQHDAPMLADFTRELLYAPLLDKQAEWCEVFDRGRATSLLLFEHVHAESRDRGQAMVDLLSQYETVGLHLNCRELPDHLPLYLEYLSVLPEAEAREGLQNIAPILALLGGRLKQRGAPWYQLFDALLTLAGSTLTSDSVTKQIIQESRDDTRQALDAVWEEEQVKFIEDNATTCDSSPLHHYQRRFSQDAAPQYVDVSAGGPK”, the “soluble on expression in E. coli” value was “not soluble”. For “MITTGKVWKFGDDISTDEITPGRYNLTKDPKELAKIAFIEVRPDFARNVRPGDVVVAGKNFGIGSSRESAALALKALGIAGVIAESFGRIFYRNAINIGIPLLLGKTEGLKDGDLVTVNWETGEVRKGDEILMFEPLEDFLLEIVREGGILEYIRRRGDLCIR”, the “soluble on expression in E. coli” value was “soluble”. As for “MSLSTKDVKELAIEQAKKFGGKLEVCPKVPIETKADLGIAYTPGVAAVSSAIHEKKERAYELTTKKNTVAVISDGSAVLGLGNIGPEAAMPVMEGKAALFKRFAGVDSIPLVLDTQDTEEIIQTVKFLAPTFGGINLEDISAPRCFEIEQRLIDELDIPVFHDDQHGTAIVVLAALYNSLKLINKKIEDIHVVINGGGSAGLSITRKFLAAGVKHIIIVDRAGILSETDTALPPHHAEIAKLTNREHRTGDLATALEGADVFVGVSAPGVLKPEWIQQMNEQPVIFAMANPVPEIFPDEALAAGAYIVGTGRSDFPNQINNVLAFPGIFRGALDARAKKITIEMQIAAAKGIAKLIPDNELTPTNIIPDPFQEGVAKVVAESVRNAVKETNEGHHHHHH”, the “soluble on expression in E. coli” value is “soluble”. Take “GPGSMPPKNAVKRNQKSSKQRDNFDEAAIDALIMAIEGKAKKGTTKSQLKQKEDKSLSRANGQSYVLSEQMRNALLAQMQQPTAQEEQYVNVPVPLTGEEKGWQEVAPNRYIRYEQFGGSDAEMNFIVNLFTAELTEPYSSFTYQYFVFGWPDLCITAFGVESETKPDNSVVGEKVGAVVSRVTRKGAGMPLRGYVAMFAVVPKFRGYRLGSRLVSLTVELMRAKGCDEVYLETPTSNVRALGLYLNLGFAKTKYLPRYYLDHSDARASEAVAEGCHPKVCPRDCFHGWCGEGVAGTLRVCLE”: the “soluble on expression in E. coli” value is listed as “soluble”. Consider “MSFFDELKTSLEEAVEIKQGLKEPARVTRYEIADVKAIREQLNVSQSEMAKALGTSVDTIKSWESKRRNPTGLAAKVLATIKENPAFFRELASH”, for which the “soluble on expression in E. coli” value is listed as “not soluble”.

Regarding “MAYQLYRNTTLGNSLQESLDELIQSQQITPQLALQVLLQFDKAINSALAQRVRNRVNFRVRMSSCIWKSVLLTLRAYVDLTHHSKIWLVWFGNLFYNRCAKFIHSMCFRIAFRF”, the “soluble on expression in E. coli” value is “not soluble”. The result for “MGSDKIHHHHHHMSVSPEFTRGKIHDVVVKPLGKFLDERGWLAELFRSDETDPATMPVMAYVSMTRPGIVRGPHEHVDQTDWFCFIGPSNFKVYLWDSRPDSPTHGVKQTLFAGIDAPMSVIVPPGVVHAYKNVGGVDGIVFNAPNRLYAGEGKSSPVDEIRHEDVAGSPFILD” reads “not soluble”; that for “MGHHHHHHSHNCHWTYLKQNRKMAANSSGQGFQNKNRVAILAELDKEKRKLLMQNQSSTNHPGARY”, “not soluble”. On to “MGSDKIHHHHHHMTLPIDTPAVLVDLNVAEANVRAFQSYCDRHSLKMRPHIKTHKLPQLAEYQIAQGAIGITCQKITEAEAMVAGGDMRDILITYNILGAEKVARLRALSERVALSVVADNLTVVEGLSAGFAGANKPLPVLVECNTGADRCGVETPEAALALAQAIDAAPGLKFAGLMTYPPVGGAAKVTTWLAEAKARIEATDLTVEVISSGGSPDMWQAHEMPLATEYRVGTYVYNDRSLVTRGICTWDDCALTVLATVVSTPSATRAVIDAGSKVLTSDLLGLEGYGHVLGYPDFMIDQLSEEHGRITSAQPTGLRVGDQVRIVPNHACVVANMLDHITLMRAEEVAGQETVAARGQVW”, for which the “soluble on expression in E. coli” value is listed as “not soluble”. On to “MTGKLYGNKDNFRTQKVLIAAKLANKTVTLAGDAAPADKFPLGVTPAFEGDALLFGAESIGLHLTGTSANAETVQWLQFAEGYLLPAVLGYVLPSVSAANFDKKTVEQYKNELNGQLQVLDRVLVKKTYLVGERLSLADVSVALDLLPAFQYVLDANARKSIVNVTRWFRTVVNQPAVKEVLGEVSLASSVAQFNQAKFTELSAKVAKSAPKAEKPKKEAKPAAAAAQPEDDEPKEEKSKDPFQDMPKGTFVLDNFKRSYSNEDTATKAIPHFWENFDADNWSIWKCEYKYPEDLTLAFMSCNLINGMYQRLEKLKKNAFASMILFGTDNNSTISGIWVWKGDKLAFELSPDWQVDYESYTWTKLDAKSDATKKEVNEYLMWEGDFGGKKFNQGKIFK”, for which the “soluble on expression in E. coli” value is listed as “soluble”. For “KMGKTPKTEILSFEQYQVTPYLSGLLELDPDTEVFELERLRIADDMPLMFERSYIPAQPFQGLSIADLKRKALYDIFAKDYQETIRLAEEEFYASIALDYEAGLLGIKKGDPVLHIIRKTYNDKNILIELTFSIARADQFRYRVQHHPNG”, the “soluble on expression in E. coli” value is “not soluble”. For the sequence “MGHHHHHHSHMNKILIAAASSGTGKTTVTLGIMHALKKRGLRVQPFKVGPDYIDTNYHQAITGVASINLDSFLIDDDAMLAALFEKHGQSADISVIEGVMGLFDGLGIDRDNSSTSFIAKCTKTPVILVVDGKAISTSAAAIVDGFNRFDPELTIAGVIINRVASENHFSLIKGAIERYTDVPVLGYLPKNAAVALPERHLGLVPKEEMTELETKWEVLGDLIAEHVDLDRLLAISKTG”, the “soluble on expression in E. coli” value is on record as “not soluble”. The result for “MSDYSAKPSGSLARIGDYDLSSDDSDQNDEDETLIASKTIQTGAVQVNDIAVAEASPAETDAKSSASPVSGPEPPTSAVVENRDLDEFKKESGSNDDKQEEINEDKDSNEETVFQQTESGSADVVDKTDVKQKDSDSSADDDHSHSKSGSVHSPQKPQGSTTPCSVQSPASPVGDEQAVKMEEVEEPIVASEEVPDKKPESVKESTDSESSGSEHGFEKMDTAEKVEDECNDDEVAASNGTEEPEPGDKAADTVNPWETPRQEPVDGVVQPRTEPPAGKPTRHTNCLDFVLFTVVKDALKHKHSWPFQLPVDAIKLEIPEYHNIVNTPMDLRTIEKRLRNLYYWCAEDAIKDLNTLFDNCKKFNDRNDDIYIMCENIEGVVQRGLEWMPSEEKPADLADHHRRGMFSASTPSGKTKGPKQRGRKSTRGRKKTSLPRGASTFKDESVDDNNDDESSKVDSINFDDDDDTATEKDAESRAESVQPEVVNEEPKPSTSQPPSKKRKAENGEPAVAVKIATPATPVAAHPQEETPRRKNPNTLIEWKHLVPRWQGKIPEWQKFCSKLLNEIHSVKNKGFAQVFYLPVDPIKLKIYDYLEVITNPMDLQTIKKKLDFKQYAEPEEFVHDINLMVDNCCKYNPKGSPAHSNALELRSFFEQRWKLFPRPGVDPIIADSYINQNLVVNTDLIEDERINSYLSAVKAEEKKCAEKLEQLRSMSEGLYTIAMQRREAKLAGNTAPALAQNQLSQLEGLGISIKSTPMMIPELISPALSVRSSSRAPVPKIIDDIGPSPIKARKISKPRASMASNVSVPYTPTGNPRGRKPKKSGRPKKNIYSPATVSERISQQPPFEVTPYVSIYGRKVVGTNDKIELSERMASIPQMYITPILRIIQIGHHNTGKTITSLRSLCEEEIDFNDVSDDLVIELLDYLEMIQKDKAKAEQVRQELEVKAKFYGFEAYDNKLGTIPKTRNMPPPLQHRMRSDSPSPSASRTGNQSSDSDSASDDSSDDEPSRSNSNVAGPRRALELSGNSSSASTPAGPSKAQPAVVRPSSKSVASKPAYTKRTLSESSSSSDSNGSSSDSSDSDSEPS” reads “not soluble”; that for “MENQPKLNSSKEVIAFLAERFPQCFSAEGEARPLKIGIFQDLVERVGGEMNLSKTQLRAALRLYTSSWRYLYGVKAGAIRVDLDGNPCGELEEQHIAHARQQLEEAKARVQAQRAAQQAKKREAAAAAGQQDEGVRRERKPRPQQPRRKEGAEQRKPRPVAAKAPREERLTPVSDVSVLTVGQALKVKAGNNAMDATVLEITKDGVRVQLTSGMSMIVRAEHLVF”, “not soluble”.
